Test system: MS2 coat protein
Experiment: apparent KD of MS2 coat protein; designed switch direction (-1 OFF switch, 1 ON switch): -1; higher = weaker reporter binding
Method in brief: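 An oligonucleotide input, 200 uM small-molecule ligand, or no input was present during titration of SNAP-549-labelled MS2 coat protein, which was doubled from 0.7 or 1.5 nM to 3 µM. Designed RNA switches had been transcribed on Illumina chips by stalled E. coli RNA polymerase. Apparent KD per design is the median over clusters of curves fitted to normalised cluster fluorescence.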

[1] = input ligand: microRNA oligo, concentration not stated
[2] = Eterna round: R95, input ligand: microRNA oligo, concentration not stated
[3] = Eterna round: R95, input ligand: FMN 200 uM
[4] = Eterna round: R95, input ligand: none

Sequence | apparent KD of MS2 coat protein (input ligand: FMN 200 uM) | apparent KD of MS2 coat protein [1] | apparent KD of MS2 coat protein (input ligand: none) | apparent KD of MS2 coat protein [2] | apparent KD of MS2 coat protein [3] | apparent KD of MS2 coat protein [4]
UACAUGAGGAUCACCCAUGUUUUGUCGUGUAUGGUAUUUAUCUAGGAUAUCAUUGUAUUUAUUUAUGAGAAGGAGAAUAUUAAU [JMF's solution 96] (Eterna round: R96, puzzle: Exclusion NG 3) | 34.4 nM | 24 nM | 32.6 nM | – | – | –
UCGUGUAUAGAGGAUAUAUUAUUUUUUUUAACAAUAGAAGGCUAAACAUGAGGAUCACCCAUGUAUUUGGUUUU [JR_Ex6_Sub051] (Eterna round: R97, puzzle: Exclusion 6) | 69.2 nM | – | 22.9 nM | – | – | –
ACAAGCUUAAAAAUCCUAAACAUGAGGAUCACCCAUGUUCGUCUUAUAAAAAUAAAAAUAAAAAAUAAAAAAUAAAA [Sensor V2: 70] (Eterna round: R96, puzzle: Sensor v2, turn-off variant) | 49.1 nM | 228 nM | 51.9 nM | – | – | –
UAAAAGCGAGGAUAUACAUGAGGAUCACCCAUGUGAGGCGAAACGCCUCGGGCCAUCAGUAGAAGGUGCAAAAC [Veorgebe] (puzzle: Exclusion 3) | – | – | – | 70.7 nM | – | –
AUCGUGCAGCUUUGCUGUACGAGUACAUGAGGAUCACCCAUGUAGGAUAUGGUACGCUUUGCGUGCUAGAAGGAUAUGUGUAGG [JL EXNG3 1.36] (Eterna round: R96, puzzle: Exclusion NG 3) | 49.1 nM | 30.7 nM | 50.3 nM | – | – | –
UUAUUAUAUGUAGGAUAUGCAUAUUGUUGUUAUGCAGAAGGACAUGAGGAUCACCCAUGUAUAUUAUUGUUAUAUAUUAUAUAU [Title] (Eterna round: R96, puzzle: Exclusion NG 1) | – | 20.1 nM | – | – | – | –
GGUCCUGAUGAUUUUCUAUACAUGAGGAUCACCCAUGUAUGUUUAUUUUGUUUUUCGCUUUUUGGUCGUCAAUAAUA [Honey] (Eterna round: R97, puzzle: Sensor, turn-off variant 1) | 44.1 nM | – | 41.6 nM | – | – | –
UUAAAUCAUGUAGGAUAUGCGUUGCGAAGCGAUGCAGAAGGACAUGAGGAUCACCCAUGUGCUAGCGUCCGCGUACGGAUGCAA [Mat - Exclusion NG 1 - Mod of JL - D60] (Eterna round: R96, puzzle: Exclusion NG 1) | 172 nM | 65.3 nM | 52 nM | – | – | –
UACACUGCAUGAGGAUCAAACAUGAGGAUCACCCAUGUAUAGCAAGCUUUUUGCUCGUCUUAUAAUUAUGUAGUGUA [Electric Eye 12 - Jieux - Sensor, turn-off variant 1] (Eterna round: R97, puzzle: Sensor, turn-off variant 1) | 15 nM | – | 15.7 nM | – | – | –
ACAUGAGGAUCACCCAUGUUUGGCUGGUCGUCUCCGGCUGUCGAGGAUAUAGUACGGUAUCCGCGCUAGAAGGUGAGGGCCGGC [Raxeorer] (Eterna round: R96, puzzle: Exclusion NG 3) | 11.5 nM | 14.6 nM | 19.3 nM | – | – | –
GUCACAUGGACAUAGGAUCACAUGAGGAUCACCCAUGUGACUAACAAGCUUUUUGCUCGUCUUAUGUCCAUGUGAAG [Stov1/15-A1] (Eterna round: R97, puzzle: Sensor, turn-off variant 1) | 13.2 nM | – | 11.7 nM | – | – | –
GCAGCAUAUGUAGGAUAUCUGCACGAUUAGUGCAGAGAAGGACAUGAGGAUCACCCAUGUAAUUAAGAUCAAUUAUUAAGCUGC [ENG1/4-A1] (Eterna round: R96, puzzle: Exclusion NG 1) | 33.3 nM | 15.6 nM | 22.8 nM | – | – | –
UAUUAACAAGCUAGAUCUUACAUGAGGAUCACCCAUGUGCUCGUCUUAUAAGGUACUGUGACGAAAGUCACGGUACC [Sensor 3, v1 - 77] (puzzle: Sensor v3, turn-off variant 1) | – | – | – | 149 nM | 22.7 nM | 22.5 nM
UUUUUAUAUGAAGGAUAUACUUAACAUGAGGAUCACCCAUGUGGUGUUGUGAGUGAGUGAGUUUAGUAGAAGGUCAAUUAUUGU [JMF's solution 16] (Eterna round: R96, puzzle: Exclusion NG 2) | 2260 nM | 155 nM | 394 nM | – | – | –
CGGUGUAGAGGAUAUACGUGAAUAUUAUUAGAUAAUAAUUUACAUGAGGAUCACCCAUGUAGAAGGCUAUAGCG [JR_Ex2_Sub083] (Eterna round: R97, puzzle: Exclusion 2) | 24.9 nM | – | 20.1 nM | – | – | –
UAACAAGCUUUAAGAUCCUACAUGAGGAUCACCCAUGUGCUCGUCUUGUAACGUACUGUGACGAAAGUCACGGUACG [JL TOV1 3.16] (Eterna round: R97, puzzle: Sensor, turn-off variant 1) | 236 nM | – | 231 nM | – | – | –
GAUACACAUGAGGAUCACCCAUGUUAGGAUAUUAGCGGGAAAGCUGUCAGACAGUCGAUGAGAAGGAACAGGAG [Excls1-VIII] (puzzle: Exclusion 1) | – | – | – | 29.3 nM | – | –

Sequence | apparent KD of MS2 coat protein (input ligand: FMN 200 uM) | apparent KD of MS2 coat protein [1] | apparent KD of MS2 coat protein (input ligand: none) | apparent KD of MS2 coat protein [2] | apparent KD of MS2 coat protein [3] | apparent KD of MS2 coat protein [4]
UCUUCACAUGAGGAUCACCCAUGUCAGGAUAUGCUCCCGAGUCACCUUAUCAUGGGACGCAGAAGGGACAUUAU [EX1 B.3] (Eterna round: R97, puzzle: Exclusion 1) | 43 nM | – | 19.8 nM | – | – | –
CUUAGUUGGUAAGGAUAUCCUACAUUAUUCUGACCCGUGCAAGCUACAUGAGGAUCACCCAUGUGGGAGAAGGUGCGUUAACGU [Design 7] (Eterna round: R96, puzzle: Exclusion NG 2) | 53.5 nM | 42.1 nM | 46 nM | – | – | –
UGCAGACGAGGAUAUGAUCAAUAAUACAUGAGGAUCACCCAUGUAAUACUGAUCCAUGGAUCAGAAGGUGUCUGCA [E5/5-B2] (Eterna round: R97, puzzle: Exclusion 5) | 19.5 nM | – | 17.5 nM | – | – | –
AAAAAGGCAGGAUAUACAUGAGGAUCACCCAUGUGAAAAAACAAAAAAAAAAAAAAAGGUAGAAGGGCCGAAAA [Science Triplets #3] (puzzle: Exclusion 3) | – | – | – | 29 nM | 22.1 nM | 27.6 nM
AGGAGCCCACGGGCUCCAAAACAUGAGGAUCACCCAUGUCAGUAGGAUAUCAUGCUUUUCUGCUGUGAGAAGGGCUGAUGUGGC [Esededor] (Eterna round: R96, puzzle: Exclusion NG 3) | 199 nM | 33.8 nM | 49 nM | – | – | –
AGUAGAUCUACGCUUGCGUGGAUCUGCAUUGCAAGUGUAACAUGAGGAUCACCCAUGUCCUCAUUUGCUCGUCUUAU [JL turnoff v2 99.02] (puzzle: Sensor v3, turn-off variant 2) | – | – | – | 277 nM | 54.4 nM | 54.2 nM
GGUCUACAUGAGGAUCACCCAUGUUAGGAUAUGCUUCGUCGGGCUAUACACGGCGGAUGUAGAAGGGACCUGGU [Eternabot (L1) Solution 83] (Eterna round: R97, puzzle: Exclusion 1) | 16.7 nM | – | 20.2 nM | – | – | –
AAGUGGUGAGGAUAUAUAUACCAAUCUUCGAGGCACGACCAACAUGAGGAUCACCCAUGUAGAAGGCACCACAA [Eternabot (Original) Solution 39] (Eterna round: R97, puzzle: Exclusion 2) | 32.7 nM | – | 14.9 nM | – | – | –
CGGCAAAGGAAGGAUAUGCUAGACGAUAGUCUAGCAGAAGGUCCUACAUGAGGAUCACCCAUGUGUCCUAGCCG [Mat - Exclusion 6 - Eli Mod - D9] (Eterna round: R97, puzzle: Exclusion 6) | 49.6 nM | – | 44.3 nM | – | – | –
AAUACAAGCUAUUGAUCCCACAUGAGGAUCACCCAUGUAGGUGGCGGUGACACCUCCUUUACGAUAGCUCGUCUUAU [Sensor-V1 #54] (Eterna round: R97, puzzle: Sensor, turn-off variant 1) | 141 nM | – | 226 nM | – | – | –
UAUUAGCAAGUAAGAUCCCACAUGAGGAUCACCCAUGUGCUCGUCAUAUCAGGUACGGAGCGGAAACUCCCGAUAUG [Sensor-V1 #89] (Eterna round: R97, puzzle: Sensor, turn-off variant 1) | 106 nM | – | 95.9 nM | – | – | –
AUUAUGUCAGGAUAUCAGUAGUAAAAAAAAAAAAUUACUACUGAGAAGGGACAUGAGGAUCACCCAUGUCAAAA [EX4 308: Super Stable 8] (Eterna round: R96, puzzle: Exclusion 4) | – | 21.3 nM | – | – | – | –
AUGCUCCGUGUAGGAUAUCGCCGUACCACUCGGCGAGAAGGACAUGAGGAUCACCCAUGUAUGUUAUUAUCACGUGUGGCGCGC [Design 50] (Eterna round: R96, puzzle: Exclusion NG 1) | 46 nM | 12.9 nM | 20.5 nM | – | – | –
UGCAGACGAGGAUAUAGAUUUGAUAACAUGAGGAUCACCCAUGUGAUCGAUAGAUCAGAUUUAGAAGGUGUCUGCA [E5/8-B2] (Eterna round: R97, puzzle: Exclusion 5) | 579 nM | – | 431 nM | – | – | –
CCGCGCCGGCGAGGAUAUUAGAAAGGAAGUGUAUAAGAAGGCGCCAUGCGCGAACAUGAGGAUCACCCAUGUGCCGCUCGUGUA [PowerStrip EXNG 1.24] (Eterna round: R96, puzzle: Exclusion NG 1) | 39.7 nM | 15.4 nM | 23.1 nM | – | – | –
CAGUACUGAGGAUAUACAUGAGGAUCACCCAUGUGUUCCAGCUAGGAAACUAGCAAAAGUAGAAGGCUGUACUG [salish99_ex3_r3_088] (puzzle: Exclusion 3) | – | – | – | 17.9 nM | – | –

Reference: the supplement of paper PMC9170038
